{
  "source": "patent US20240270846A1",
  "about": "(published 2024)",
  "binders": {"B1": {"name": "CE115HA000 H chain altered form K52R (antibody, human IgG1, kappa, L234A L235A, N297A, name in Kabat numbering)", "heavy": "QVQLVESGGGVVQPGRSLRLSCAASGFTFSNAWMHWVRQAPGKGLEWVAQIRAKSNNYATYYAESVKGRFTISRDDSKNSLYLQMNSLKTEDTAVYYCRYVHYGAYYGVDAWGQGTTVTVSSASTKGPSVFPLAPSSKSTSGGTAALGCLVKDYFPEPVTVSWNSGALTSGVHTFPAVLQSSGLYSLSSVVTVPSSSLGTQTYICNVNHKPSNTKVDKKVEPKSCDKTHTCPPCPAPEAAGGPSVFLFPPKPKDTLMISRTPEVTCVVVDVSHEDPEVKFNWYVDGVEVHNAKTKPREEQYASTYRVVSVLTVLHQDWLNGKEYKCKVSNKALPAPIEKTISKAKGQPREPQVYTLPPSRCELTKNQVSLSCAVKGFYPSDIAVEWESNGQPENNYKTTPPVLDSDGSFFLVSKLTVDKSRWQQGNVFSCSVMHEALHNHYTQKSLSLSPDYKDDDDK", "chain": "EPKSSDKTHTCPPCPAPELLGGPSVFLFPPKPKDTLMISRTPEVTCVVVDVSHEDPEVKFNWYVDGVEVHNAKTKPREEQYNSTYRVVSVLTVLHQDWLNGKEYKCKVSNKALPAPIEKTISKAKGQPREPQVCTLPPSRDELTKNQVSLWCLVKGFYPSDIAVEWESNGQPENNYKTTPPVLDSDGSFFLYSKLTVDKSRWQQGNVFSCSVMHEALHNRYTQKSLSLSP", "light": "DIVMTQSPLSLPVTPGEPASISCRSSQSLVHSNRNTYLHWYQQKPGQAPRLLIYKVSNRFSGVPDRFSGSGSGTDFTLKISRVEAEDVGVYYCGQGTQVPYTFGQGTKLEIKRTVAAPSVFIFPPSDEQLKSGTASVVCLLNNFYPREAKVQWKVDNALQSGNSQESVTEQDSKDSTYSLSSTLTLSKADYEKHKVYACEVTHQGLSSPVTKSFNRGEC", "notes": "one-arm antibody"}, "B2": {"name": "CE115HA000 H chain altered form K52bY (antibody, human IgG1, kappa, L234A L235A, N297A, name in Kabat numbering)", "heavy": "B1 heavy with R52K, K54Y", "chain": "B1 chain", "light": "B1 light", "notes": "one-arm antibody"}, "B3": {"name": "CE115HA000 H chain altered form N31S (antibody, human IgG1, kappa, L234A L235A, N297A, name in Kabat numbering)", "heavy": "B1 heavy with N31S, R52K", "chain": "B1 chain", "light": "B1 light", "notes": "one-arm antibody"}, "B4": {"name": "CE115HA000 H chain altered form K52bL (antibody, human IgG1, kappa, L234A L235A, N297A, name in Kabat numbering)", "heavy": "B1 heavy with R52K, K54L", "chain": "B1 chain", "light": "B1 light", "notes": "one-arm antibody"}, "B5": {"name": "CE115HA000 H chain altered form K52S (antibody, human IgG1, kappa, L234A L235A, N297A, name in Kabat numbering)", "heavy": "B1 heavy with R52S", "chain": "B1 chain", "light": "B1 light", "notes": "one-arm antibody"}, "B6": {"name": "CE115HA000 H chain altered form K52bA (antibody, human IgG1, kappa, L234A L235A, N297A, name in Kabat numbering)", "heavy": "B1 heavy with R52K, K54A", "chain": "B1 chain", "light": "B1 light", "notes": "one-arm antibody"}, "B7": {"name": "CE115HA000 H chain altered form N31R (antibody, human IgG1, kappa, L234A L235A, N297A, name in Kabat numbering)", "heavy": "B1 heavy with N31R, R52K", "chain": "B1 chain", "light": "B1 light", "notes": "one-arm antibody"}, "B8": {"name": "CE115HA000 H chain altered form K52bQ (antibody, human IgG1, kappa, L234A L235A, N297A, name in Kabat numbering)", "heavy": "B1 heavy with R52K, K54Q", "chain": "B1 chain", "light": "B1 light", "notes": "one-arm antibody"}, "B9": {"name": "CE115HA000 H chain altered form N31A (antibody, human IgG1, kappa, L234A L235A, N297A, name in Kabat numbering)", "heavy": "B1 heavy with N31A, R52K", "chain": "B1 chain", "light": "B1 light", "notes": "one-arm antibody"}, "B10": {"name": "CE115HA000 H chain altered form K52bD (antibody, human IgG1, kappa, L234A L235A, N297A, name in Kabat numbering)", "heavy": "B1 heavy with R52K, K54D", "chain": "B1 chain", "light": "B1 light", "notes": "one-arm antibody"}, "B11": {"name": "CE115HA000 H chain altered form K52W (antibody, human IgG1, kappa, L234A L235A, N297A, name in Kabat numbering)", "heavy": "B1 heavy with R52W", "chain": "B1 chain", "light": "B1 light", "notes": "one-arm antibody"}, "B12": {"name": "CE115HA000 H chain altered form N31W (antibody, human IgG1, kappa, L234A L235A, N297A, name in Kabat numbering)", "heavy": "B1 heavy with N31W, R52K", "chain": "B1 chain", "light": "B1 light", "notes": "one-arm antibody"}, "B13": {"name": "CE115HA000 H chain altered form N31G (antibody, human IgG1, kappa, L234A L235A, N297A, name in Kabat numbering)", "heavy": "B1 heavy with N31G, R52K", "chain": "B1 chain", "light": "B1 light", "notes": "one-arm antibody"}, "B14": {"name": "CE115HA000 H chain altered form N31D (antibody, human IgG1, kappa, L234A L235A, N297A, name in Kabat numbering)", "heavy": "B1 heavy with N31D, R52K", "chain": "B1 chain", "light": "B1 light", "notes": "one-arm antibody"}, "B15": {"name": "CE115HA000 H chain altered form K52bN (antibody, human IgG1, kappa, L234A L235A, N297A, name in Kabat numbering)", "heavy": "B1 heavy with R52K, K54N", "chain": "B1 chain", "light": "B1 light", "notes": "one-arm antibody"}, "B16": {"name": "CE115HA000 H chain altered form N31F (antibody, human IgG1, kappa, L234A L235A, N297A, name in Kabat numbering)", "heavy": "B1 heavy with N31F, R52K", "chain": "B1 chain", "light": "B1 light", "notes": "one-arm antibody"}, "B17": {"name": "CE115HA000 H chain altered form N31I (antibody, human IgG1, kappa, L234A L235A, N297A, name in Kabat numbering)", "heavy": "B1 heavy with N31I, R52K", "chain": "B1 chain", "light": "B1 light", "notes": "one-arm antibody"}, "B18": {"name": "CE115HA000 H chain altered form N31Q (antibody, human IgG1, kappa, L234A L235A, N297A, name in Kabat numbering)", "heavy": "B1 heavy with N31Q, R52K", "chain": "B1 chain", "light": "B1 light", "notes": "one-arm antibody"}, "B19": {"name": "CE115HA000 H chain altered form K52bR (antibody, human IgG1, kappa, L234A L235A, N297A, name in Kabat numbering)", "heavy": "B1 heavy with R52K, K54R", "chain": "B1 chain", "light": "B1 light", "notes": "one-arm antibody"}, "B20": {"name": "CE115HA000 H chain altered form K52bS (antibody, human IgG1, kappa, L234A L235A, N297A, name in Kabat numbering)", "heavy": "B1 heavy with R52K, K54S", "chain": "B1 chain", "light": "B1 light", "notes": "one-arm antibody"}, "B21": {"name": "CE115HA000 H chain altered form K52Y (antibody, human IgG1, kappa, L234A L235A, N297A, name in Kabat numbering)", "heavy": "B1 heavy with R52Y", "chain": "B1 chain", "light": "B1 light", "notes": "one-arm antibody"}, "B22": {"name": "CE115HA000 H chain altered form N31H (antibody, human IgG1, kappa, L234A L235A, N297A, name in Kabat numbering)", "heavy": "B1 heavy with N31H, R52K", "chain": "B1 chain", "light": "B1 light", "notes": "one-arm antibody"}, "B23": {"name": "CE115HA000 H chain altered form N31K (antibody, human IgG1, kappa, L234A L235A, N297A, name in Kabat numbering)", "heavy": "B1 heavy with N31K, R52K", "chain": "B1 chain", "light": "B1 light", "notes": "one-arm antibody"}},
  "note": "Substitutions are numbered along the chain they refer to.",
  "data": [
    {"target": "T1, CD3 epsilon homodimer protein (UniProt P07766 23-126)", "T1 construct": "also called CD3 (CD3 epsilon)", "T1 sequence (P07766 23-126)": "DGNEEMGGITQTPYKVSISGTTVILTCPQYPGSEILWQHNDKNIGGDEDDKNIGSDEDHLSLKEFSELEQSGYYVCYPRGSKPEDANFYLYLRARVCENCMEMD", "test": "SPR Biacore T200, CD3 epsilon homodimer on chip, antibody as analyte;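 note: homodimer amine-coupled to a CM4 sensor chip, run at 25 °C in HBS-EP+ buffer, with kinetic parameters derived in Biacore T200 Evaluation Software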", "procedure": "An appropriate amount of CD3 epsilon homodimer protein was immobilized onto Sensor chip CM4 (GE Healthcare Japan Corp.) by the amine coupling method. Then, the antibody having an appropriate concentration was injected thereto as an analyte and allowed to interact with the CD3 epsilon homodimer protein on the sensor chip. Then, the sensor chip was regenerated by the injection of 10 mmol/L glycine-HCl (pH 1.5). The assay was conducted at 25 degrees C., and HBS-EP+(GE Healthcare Japan Corp.) was used as a running buffer. […] Each parameter was calculated using Biacore T200 Evaluation Software (GE Healthcare Japan Corp.).\nSpecifically, when the amount of the antibody comprising CE115HA000 bound was defined as X and the amount of the H chain one-amino acid altered form bound was defined as Y, a value of Z (ratio of amounts bound)=Y/X was used.", "values": [
      {"binder": "B1", "KD ratio (KD of CE115HA000 / KD of altered form)": 0.8},
      {"binder": "B2", "KD ratio (KD of CE115HA000 / KD of altered form)": 0.61},
      {"binder": "B3", "KD ratio (KD of CE115HA000 / KD of altered form)": 0.67},
      {"binder": "B4", "KD ratio (KD of CE115HA000 / KD of altered form)": 0.61},
      {"binder": "B5", "KD ratio (KD of CE115HA000 / KD of altered form)": 92.1},
      {"binder": "B6", "KD ratio (KD of CE115HA000 / KD of altered form)": 0.58},
      {"binder": "B7", "KD ratio (KD of CE115HA000 / KD of altered form)": 0.98},
      {"binder": "B8", "KD ratio (KD of CE115HA000 / KD of altered form)": 0.62},
      {"binder": "B9", "KD ratio (KD of CE115HA000 / KD of altered form)": 0.96},
      {"binder": "B10", "KD ratio (KD of CE115HA000 / KD of altered form)": 0.56},
      {"binder": "B11", "KD ratio (KD of CE115HA000 / KD of altered form)": 2.69},
      {"binder": "B12", "KD ratio (KD of CE115HA000 / KD of altered form)": 1.07},
      {"binder": "B13", "KD ratio (KD of CE115HA000 / KD of altered form)": 1.37},
      {"binder": "B14", "KD ratio (KD of CE115HA000 / KD of altered form)": 1.14},
      {"binder": "B15", "KD ratio (KD of CE115HA000 / KD of altered form)": 0.43},
      {"binder": "B16", "KD ratio (KD of CE115HA000 / KD of altered form)": 1.24},
      {"binder": "B17", "KD ratio (KD of CE115HA000 / KD of altered form)": 0.62},
      {"binder": "B18", "KD ratio (KD of CE115HA000 / KD of altered form)": 0.94},
      {"binder": "B19", "KD ratio (KD of CE115HA000 / KD of altered form)": 0.91},
      {"binder": "B20", "KD ratio (KD of CE115HA000 / KD of altered form)": 0.58},
      {"binder": "B21", "KD ratio (KD of CE115HA000 / KD of altered form)": 6.47},
      {"binder": "B22", "KD ratio (KD of CE115HA000 / KD of altered form)": 0.96},
      {"binder": "B23", "KD ratio (KD of CE115HA000 / KD of altered form)": 0.97}
    ]}
  ]
}
